Source: patent US20140363441A1 (priority 2013, published 2014)
Several values for one entry are separate records, joined by “and”; a condition that tells them apart may be missing. Identical values can stand only once. Entries after “also recorded” stand apart in the source; their conditions may differ.

Experiments:
H5N1 (A/Vietnam/1203/04) [1] = test system: H5N1 (A/Vietnam/1203/04); set-up: species or system balb/c mice; conditions: mouse, in vivo
H5N1 (A/Vietnam/1203/04) [2] = test system: H5N1 (A/Vietnam/1203/04); set-up: species or system balb/c mice; conditions: mouse, in vivo; remark: listed apart in the source
[3] = biological target: influenza A/Puerto Rico/8/34 (PR8) virus particles (M2 protein on the virion) (influenza A virus H1N1 A/Puerto Rico/8/34) (UniProt P06821); experiment: affinity of FAb fragments on whole PR8 virus
[4] = biological target: influenza A/Puerto Rico/8/34 (PR8) virus particles (M2 protein on the virion) (influenza A virus H1N1 A/Puerto Rico/8/34) (UniProt P06821); experiment: surface plasmon resonance, Fab fragment on influenza virus
[5] = biological target: M2 protein of influenza A/Hong Kong/483/1997 (H5N1), expressed on cells (influenza A virus H5N1 A/Hong Kong/483/97)
HVIR1 = experiment: peptide ELISA, mAb 5 µg/mL

Molecule	MFI [5]	other results
CCOC(=O)C1=C[C@@H](OC(CC)CC)[C@H](NC(C)=O)[C@@H](N)C1 [oseltamivir]	–	percentage of weight remaining (H5N1 (A/Vietnam/1203/04) [1]): completely protected; also recorded: retained more weight; survival rate (H5N1 (A/Vietnam/1203/04) [2]): extinction of the population prior to the end of the therapy
ch14C2 Fab fragment	–	Kd [3]: 4 µM; koff [3]: 0.00286 s⁻¹; kon [3]: 500 M⁻¹ s⁻¹; Kd [4]: 4 µM; koff [4]: 0.0018 s⁻¹; kon [4]: 500 M⁻¹ s⁻¹
3252_C13 (antibody, V domains shown) VH: QVQLQESGPGLVKPSETLSLTCTVSGASISSDYWSWIRLPPGKGLEWIGYIYNRGSTKYTPSLKSRVTISLDTAENQFSLRLRSVTAADTAIYYCARHVGGHTYGIDYWGQGTLVTVSS VL: DIQMTQSPSSLSASVGDRVTITCRASQSISNYLNWYQHKPGEAPKLLNYAASSLQSGVPSRFSASGSGTDFTLTISSLQPEDFATYYCQQSYNTPITFGQGTRLEIK	449 MFI	–
3362_B11 (antibody, V domains shown) VH: QVQLQASGPGLVKPSETLSLTCTVSGDSITSGAYYWTWIRQHPGKGLEWIGYIYYSGNTYYNPSLKSRVTISLDTSKNQFSLKVNSVTAADTAVYYCARAASTSVLGYGMDVWGQGTTVTVSS VL: DIQMTQSPSSLSASVGDRVTITCRASQSISRYLNWYQQEPGKAPKLLVYAASSLQSGVPSRFSGSGSGTDFTLTISSLQPEDFATYYCQQSYSTPLTFGQGTRLEIK	218 MFI	–
3255_J06 (antibody, V domains shown) VH: QVQLQESGPGLVKPSETLSLTCTVSGASISSDYWSWIRLPPGKGLEWIGYIYNRGSTKYTPSLKSRVTISLDTAENQFSLRLRSVTAADTAVYYCARHVGGHTYGIDYWGQGTLVTVSS VL: DIQMTQSPSSLSASVGDRVTITCRASQSISNYLNWYQHKPGEAPKLLNYAASSLQSGVPSRFSASGSGTDFTLSISGLQPEDFATYYCQQSYNTPITFGPGTRLEIK	442 MFI	–
3420_I23 (antibody, V domains shown) VH: QVQLQESGPGLVKPSETLSVTCKVSGDSISSYSWSWIRQPPGKGLEWVGYLYYSGSTKYNPSLKSRTTISVDTSTNQLSLKLSFVTAADTAVYFCARTGSESTTGYGMDVWGQGTTVTVSS VL: DIQMTQSPSSLSASVGDRVTITCRASQSISTYLNWYQQKPGKAPKLLIYAASSLHSGVPSRFSGSGSGTDFALTISSLQPEDFATYYCQQSYSPPITFGQGTRLEIK	112 MFI	–
3260_D19 (antibody, V domains shown) VH: DMQLVESGGGLVPPGGSLRLSCAASGFSVSDNYINWVRQAPGKGLDWVSVFYSADRTSYADSVKGRFTVSSHDSKNTVYLQMNSLRAEDTAVYYCARVQKSYYGMDVWGQGTTVTVSS VL: GIQMTQSPSSLSASVGDRVTITCRASQSISRYLNWYLQKPGKAPKLLISGASSLQSGVPSRFSGTGSGTEFTLTISSLQPEDFATYYCQQTFSIPLFGQGTKVEIK	846 MFI	–
3242_P05 (antibody, V domains shown) VH: DMQLVESGGGLVPPGGSLRLSCAASGFSVSDNYINWVRQAPGKGLDWVSVFYSADRTSYADSVKGRFTVSSHDSKNTVYLQMNSLRAEDTAVYYCARVQKSYYGMDVWGQGTTVTVSS VL: GIQMTQSPSSLSASVGDRVTITCRASQSISRYLNWYLQKPGKAPKLLISGASSLQSGVPSRFSGTGSGTEFTLTISSLQPEDFATYYCQQTFSIPLFGQGTKVEIK	596 MFI	–
3136_G05 (antibody, V domains shown) VH: QVQLQESGPGLVKPSETLSLTCSVSGGSISSDFWSWIRQPPGKGLEWIGYVYNRGSTKYSPSLKSRVTISADMSKNQFSLNMSSVTAADTAVYYCAKNGRSSTSWGIDVWGKGTTVTVSS VL: DIQMTQSPSSLSASVGDRLTITCRASQSISTYLHWYQQKPGKAPKLLIYAASSLQSGVPSRFSGSRSGTDFTLTISSLQPDDFATYYCQQSYSPPLTFGPGTKVDMK	109 MFI	–
3244_H04 (antibody, V domains shown) VH: EVQLVESGGGLVQPGGSLRLSCTASGLSVSSTYMNWVRQAPGKGLEWVSVFYSETRTYYADSVKGRFTVSRHNSNNTLYLQMNSLRAEDTAVYYCARVQRLSYGMDVWGQGTTVTVSS VL: DIQMTQSPSSLSASVGDRVTITCRASQSISTYLNWYQKRPGKAPKLLVYGASSLQSGVPSRFSGSGSGTDFTLTIASLQPEDSAVYYCQQTYSIPLFGQGTRLEIK	963 MFI	–
3245_O19 (antibody, V domains shown) VH: EVQLVESGGGLVQPGGSLRLSCTASGLSVSSTYMNWVRQAPGKGLEWVSVFYSETRTYYADSVKGRFTVSRHNSNNTLYLQMNSLRVEDTAVYYCARVQRLSYGMDVWGQGTTVTVSS VL: DIQMTQSPSSLSASVGDRVTITCRASQSISTYLNWYQKRPGKAPKLLVYGASTLQSGVPSRFSGSGSGTDFTLTIASLQPEDSATYYCQQTYSIPLFGQGTRLEIK	919 MFI	–
8I10 (TCN-032) (antibody, V domains shown) VH: QVQLQESGPGLVKPSETLSLTCTVSGSSISNYYWSWIRQSPGKGLEWIGFIYYGGNTKYNPSLKSRVTISQDTSKSQVSLTMSSVTAAESAVYFCARASCSGGYCILDYWGQGTLVTVS VL: DIQMTQSPSSLSASVGDRVTITCRASQNIYKYLNWYQQRPGKAPKGLISAASGLQSGVPSRFSGSGSGTDFTLTITSLQPEDFATYYCQQSYSPPLTFGGGTRVEIK	754 MFI and 1080 MFI	ELISA A450 (HVIR1): 0.11
3259_J21 (antibody, V domains shown) VH: QVQLQESGPRVVRPSETLSLTCTVSGGSISSYNWIWIRQPPGKGLEWIGHIYDYGRTFYNSSLQSRPTISVDASKNQLSLRLTSVTASDTAVYYCARPLGILHYYAMDLWGQGTTVTVSS VL: DIQMTQSPLSVSVSVGDRVTIACRASQSIDKFLNWYQQKPGKAPKLLIYGASNLHSGAPSRFSASGSGTDFTLTITNIQTEDFATYLCQQSFSVPAFGGGTKVEIK	1670 MFI	–
3248_P18 (antibody, V domains shown) VH: QVQLQESGPGLVKPSETLSLTCTVSGGSISAYHWSWIRQPPGKGLEWIGHIFDSGSTYYNPSLKSRVTISLDASKNQLSLRLTSVTASDTAIYYCARPLGSRYYYGMDVWGQGTTVTVSS VL: DIQMTQSPSSLSASVGDRVTITCRASQSISRYLNWYQQKPGKAPKLLIYGASTLQNGAPSRFSGSGSGTDFTLTISSLQPEDSATYLCQQSYSVPAFGGGTKVEVK	967 MFI	–
23K12 (TCN-031) (antibody, V domains shown) VH: EVQLVESGGGLVQPGGSLRISCAASGFTVSSNYMSWVRQAPGKGLEWVSVIYSGGSTYYADSVKGRFSFSRDNSKNTVFLQMNSLRAEDTAVYYCARCLSRMRGYGLDVWGQGTTVTVS VL: DIQMTQSPSSLSASVGDRVTITCRTSQSISSYLNWYQQKPGKAPKLLIYAASSLQSGVPSRFSGSGSGTDFTLTISGLQPEDFATYYCQQSYSMPAFGQGTKLEIK	–	ELISA A450 (HVIR1): 0.21
3139_P23 (antibody, V domains shown) VH: QVQLQESGPRLVKPSESLSLTCTVSGGSISNSFWGWIRQPPGEGLEWIGYVYNSGNTKYNPSLKSRVTISRDTSKSQLYMKLRSVTAADTAVYYCARHDDASHGYSISWGHGTLVTVSS VL: DIQMTQSPSSLSASVGDRVTITCRASQTISTYLNWYQQKSGKAPKLLIYAASGLQSGVPSRFSGSGSGTDFTLTISSLQPEDFATYFCQQSYNTPLTFGQGTKVEIK	110 MFI	–
3253_P10 (antibody, V domains shown) VH: QVQLQESGPGLLKPSDTLALTCTVSGGSITSDYWSWIRQPPGRGLDWIGFFYNGGSTKYNPSLKSRVTISADTSKNQLSLKLTSVTAADTGVYYCARHDAKFSGSYYVASWGQGTRVTVSS VL: DIQMTQSPSSLSASVGDRVTISCRASQSISTYLNWYQQQPGKAPKVLISGATDLQSGVPSRFSGSGSGTDFTLTISSLQPEDFATYYCQQSYNTPLIFGQGTKLEIK	43 MFI	–
3243_J07 (antibody, V domains shown) VH: QVQLQESGPGLLKPSDTLALTCTVSGGSITSDYWSWIRQPPGRGLDWIGFFYNGGSTKYNPSLKSRVTISADTSKNQLSLKLTSVTAADTGVYYCARHDVKFSGSYYVASWGQGTRVTVSS VL: DIQMTQSPSSLSASVGDRVTISCRASQSISTYLNWYQQQPGKAPKVLISGATNLQSGVPSRFSGSGSGTDFTLTISSLQPEDFATYYCQQSYNTPLIFGQGTKLEIK	131 MFI	–
3244_I10 (antibody, V domains shown) VH: QVQLQESGPGLLKPSDTLALTCTVSGGSITSDYWSWIRQPPGRGLDWIGFFYNGGSTKYNPSLKSRVTISADTSKNQLSLKLTSVTAADTGVYYCARHDAKFSGSYYVASWGQGTRVTVSS VL: DIQMTQSPSSLSASVGDRVTISCRASQSISTYLNWYQQQPGKAPKVLIFGATNLQSGVPSRFSGSGSGTDFTLTISSLQPEDFATYYCQQSYNTPLIFGQGTKLEIK	434 MFI	–
3241_G23 (antibody, V domains shown) VH: QVQLQQSGPGLVKPSQTLSLTCTVSGGPVSGGGYSWNWIRQRPGQGLEWVGFMFHSGSPRYNPTLKSRITISVDTSKNLVSLKLSSVTAADTAVYFCARVGQMDKYYAMDVWGQGTTVTVSS VL: DIQMTQSPSSLSSSVGDRVTITCRASQSIGAYVNWYQQKAGKAPQVLIFGASNLQSGVPSRFSGSGSGTDFTLTISSLQPEDFATYFCQQTYSTPITFGQGTRLEIK	1700 MFI	–
